# Test results reported in US20230382976, “APTAMER ASSEMBLIES FOR PROTEIN CROSSLINKING” (UNIVERSITY OF FLORIDA RESEARCH FOUNDATION, INC., published 2023).
# B1: random ssDNA oligomer monovalent 80 nt (ssDNA)
# DNA: TAATGAGAAGTATGTGTAGAGTCAATGAGATACGCAATTGGGAAGACAAGAGTATTGACTCGGACTGAGTACAATCGTCC
# B2: scrambled 80 nt aptamer (ssDNA)
# DNA: TAAAACGCGCTTAAGCTGGTGTTACTCGAGCGGTCTTCTATTGAAATAATTTCTGAAGGCACACGACATATGATCTTCAG
# modifications: 5' amino C6 (5AmMC6)
# B3: VEGF-R2 aptamer monovalent (ssDNA)
# DNA: GATGTGAGTGTGTGACGAGCTACGACGTCTGGTGTAATTTATAAAGACACTGTGTATATCAACAACAGAACAAGGAAAGG
# B4: random 90 nt ssDNA (ssDNA)
# DNA: AATTTAGGAGCTGAAGGTCAGGGCACCAGCAGCCTTTGGAAGCCTACAGGACAACAGTCAGCCTGGCTAGAAAAAAAAACAATGTCACAG
# Tests used:
# Type I collagen [1] = target: T1, Type I collagen (Rattus norvegicus, UniProt P02454;P02466 P02454:152-1207,P02466:86-1125); assay: fiber formation, same as VEGF-R2 aptamer; conditions: tags: rat tail tendon, Corning; chain copies: 2,1
# T1 sequence (P02454 152-1207, chain 1 of 2): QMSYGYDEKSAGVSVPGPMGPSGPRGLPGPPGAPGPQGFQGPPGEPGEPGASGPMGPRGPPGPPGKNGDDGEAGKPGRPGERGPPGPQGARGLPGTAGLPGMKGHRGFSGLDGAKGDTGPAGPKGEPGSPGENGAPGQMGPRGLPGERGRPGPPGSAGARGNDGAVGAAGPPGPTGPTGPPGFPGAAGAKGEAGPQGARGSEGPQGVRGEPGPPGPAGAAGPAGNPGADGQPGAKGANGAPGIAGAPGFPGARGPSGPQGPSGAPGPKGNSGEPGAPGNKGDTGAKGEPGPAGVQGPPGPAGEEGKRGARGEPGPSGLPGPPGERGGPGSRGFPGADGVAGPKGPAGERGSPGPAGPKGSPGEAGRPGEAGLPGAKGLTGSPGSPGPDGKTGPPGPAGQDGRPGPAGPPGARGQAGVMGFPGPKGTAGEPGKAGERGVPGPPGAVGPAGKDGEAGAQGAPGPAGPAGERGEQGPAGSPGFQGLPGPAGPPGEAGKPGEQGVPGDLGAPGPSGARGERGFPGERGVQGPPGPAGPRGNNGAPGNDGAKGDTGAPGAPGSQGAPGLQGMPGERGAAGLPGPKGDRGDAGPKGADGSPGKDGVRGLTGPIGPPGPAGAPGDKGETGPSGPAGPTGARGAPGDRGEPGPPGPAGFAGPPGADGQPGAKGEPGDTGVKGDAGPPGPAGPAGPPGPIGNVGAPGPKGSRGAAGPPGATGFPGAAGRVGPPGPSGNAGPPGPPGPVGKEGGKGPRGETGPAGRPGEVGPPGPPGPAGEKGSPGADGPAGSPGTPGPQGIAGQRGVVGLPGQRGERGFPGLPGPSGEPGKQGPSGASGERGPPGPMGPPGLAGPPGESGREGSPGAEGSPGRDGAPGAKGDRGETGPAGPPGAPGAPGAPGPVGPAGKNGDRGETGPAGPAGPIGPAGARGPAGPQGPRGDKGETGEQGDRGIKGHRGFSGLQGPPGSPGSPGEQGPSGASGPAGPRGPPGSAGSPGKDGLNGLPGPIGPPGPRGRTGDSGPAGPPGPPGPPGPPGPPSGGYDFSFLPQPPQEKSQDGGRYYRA
# T1 sequence (P02466 86-1125, chain 2 of 2): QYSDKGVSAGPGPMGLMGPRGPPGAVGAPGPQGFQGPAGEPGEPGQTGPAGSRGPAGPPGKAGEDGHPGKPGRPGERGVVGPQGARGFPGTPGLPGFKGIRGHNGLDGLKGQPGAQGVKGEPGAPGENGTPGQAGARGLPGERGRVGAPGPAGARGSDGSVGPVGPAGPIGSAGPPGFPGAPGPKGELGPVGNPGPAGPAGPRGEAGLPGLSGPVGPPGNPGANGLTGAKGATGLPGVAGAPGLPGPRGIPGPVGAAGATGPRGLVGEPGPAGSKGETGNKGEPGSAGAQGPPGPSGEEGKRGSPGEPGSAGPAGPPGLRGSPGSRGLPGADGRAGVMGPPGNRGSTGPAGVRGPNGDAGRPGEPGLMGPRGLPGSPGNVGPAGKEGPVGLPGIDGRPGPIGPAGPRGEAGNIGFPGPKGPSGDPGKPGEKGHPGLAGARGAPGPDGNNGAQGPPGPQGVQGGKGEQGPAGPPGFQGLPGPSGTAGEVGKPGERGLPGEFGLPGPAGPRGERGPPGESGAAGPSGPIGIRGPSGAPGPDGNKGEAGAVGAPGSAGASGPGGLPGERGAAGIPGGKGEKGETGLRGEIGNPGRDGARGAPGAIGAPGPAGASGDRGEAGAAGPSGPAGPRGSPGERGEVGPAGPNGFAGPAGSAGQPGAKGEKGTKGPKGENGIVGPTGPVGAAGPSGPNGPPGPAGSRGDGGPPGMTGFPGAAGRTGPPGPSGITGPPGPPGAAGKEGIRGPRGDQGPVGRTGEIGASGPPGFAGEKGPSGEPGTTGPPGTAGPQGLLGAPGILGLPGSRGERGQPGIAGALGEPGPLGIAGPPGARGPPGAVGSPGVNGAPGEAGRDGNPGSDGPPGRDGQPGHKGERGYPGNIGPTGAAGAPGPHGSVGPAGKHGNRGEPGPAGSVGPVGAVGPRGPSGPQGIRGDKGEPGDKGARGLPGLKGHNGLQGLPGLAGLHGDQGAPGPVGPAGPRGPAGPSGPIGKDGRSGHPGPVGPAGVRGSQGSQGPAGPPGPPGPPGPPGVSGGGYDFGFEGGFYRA
# Excerpt: (§1) A VEGF-R2 targeting aptamer sequence was used in both a monovalent (single sequence) and divalent form (two single sequences tethered by a (PEG)6 linker). For all studies, we used a random sequence ssDNA of the same length and GC content as a control to determine the effect of the targeting and functionality of the DNA aptamer as compared to the effect of purely ssDNA, respectively.32 The VEGF-R2 targeting aptamer monovalent sequence is: ‘5-GATGTGAGTGTGTGACGAGCTACGACGTCTGGTGTAATTTATAAAGACACTGTGTATATCAACAACAGAACAAGGAAAGG-3’ (SEQ ID NO:14) .The random ssDNA oligomer monovalent sequence is: ‘5-TAATGAGAAGTATGTGTAGAGTCAATGAGATACGCAATTGGGAAGACAAGAGTATTGACTCGGACTGAGTACAATCGTCC-3’ (SEQ ID NO:15). […]
# (§2) Fiber morphology for the different volume fractions of type I collagen and DNA aptamer was qualitatively assessed by phase and fluorescence microscopy using immobilized fibers. For fluorescence microscopy, immobilized fibers were stained with SYBR Safe DNA stain (Invitrogen) diluted at a 1:10,000 volume ratio in deionized water. […] To quantify surface coverage, full well images were taken with a Keyence BZ-X700 fluorescence microscope.
# Type I collagen [2] = target: T1, Type I collagen; assay: maximum binding at 23.16% mass fraction ssDNA; SYBR Safe depletion assay, deionized water, RT; conditions: tags: rat tail tendon, Corning; chain copies: 2,1
# Type I collagen [3] = target: T1, Type I collagen; assay: maximum binding at 29.32% mass fraction ssDNA; SYBR Safe depletion assay, deionized water, RT; conditions: tags: rat tail tendon, Corning; chain copies: 2,1
# Type I collagen [4] = target: T1, Type I collagen; assay: percent DNA bound rises with collagen; SYBR Safe depletion after centrifugation; fibers at 10-30% vol collagen; conditions: tags: rat tail tendon, Corning; chain copies: 2,1; hairpins predicted
# Experimental: In 96 well plate, mixtures of scrambled aptamer (1 μM) were mixed with rat tail type I collagen (0.3 mg/mL). Mixtures were at 25% increments from 0% to 100% volume fraction collagen with 1 replicate. Solutions were incubated at room temperature for 2 hours and then SYBR Safe DNA stain was added in a 2:1 ratio to the aptamer-collagen solutions and incubated for 30 minutes in the dark at room temperature. The solutions were centrifuged at 2000 g for 5 minutes and the supernatant was added to a 96 well plate giving 2 repeats per solution. Fluorescent intensity was measured by exciting at 488 nm and reading emission at 520 nm.
# Type I collagen [5] = target: T1, Type I collagen; assay: binding capacity identical to random ssDNA; fibers form above about 5 pmol ssDNA/ug collagen; conditions: tags: rat tail tendon, Corning; chain copies: 2,1
# Experimental: (§3) Complexes spontaneously formed upon mixing and were incubated at room temperature overnight followed by storage in solution at 4° C. until needed.
# (§4) The amount of ssDNA in the DNA aptamer-collagen complex self-assembled fibers for different volume fractions of type I collagen and ssDNA oligomer was assessed fluorometrically by measuring the intensity of a fluorescent DNA stain. Solutions of different volume fractions were diluted at a 1:2 volume ratio of fiber solution to SYBR Safe DNA stain (Invitrogen). The stain concentrate was diluted first at a 1:10,000 volume ratio in deionized water. Then the mixtures were incubated protected from light for 30 minutes at room-temperature. After incubation, the mixtures were centrifuged at 2000 g for five minutes. Supernatant was plated in duplicate into black walled 96 well microplates and fluorescence intensity was measured by exciting at 488 nm and detecting at 520 nm using a UV-Vis Synergy H1 plate reader (BioTek). ssDNA in the supernatant was quantified using a standard curve fit with a 4-parameter logistic regression to correlate fluorescent intensity to ssDNA concentration. Individual standard curves were prepared for each ssDNA to account for any differences in DNA stain interaction with the two ssDNA sequences due to their secondary structure.
# Type I collagen [6] = target: T1, Type I collagen; assay: fiber formation by microscopy, deionized water; conditions: tags: rat tail tendon, Corning; chain copies: 2,1
# Type I collagen [7] = target: T1, Type I collagen; assay: fiber formation, same as random sequence; none above 50% vol collagen; conditions: tags: rat tail tendon, Corning; chain copies: 2,1
# Excerpt: as §1, §2
# Type I collagen [8] = target: T1, Type I collagen; assay: maximum binding at 17.83% mass fraction ssDNA; SYBR Safe depletion assay, deionized water, RT; conditions: tags: rat tail tendon, Corning; chain copies: 2,1
# Type I collagen [9] = target: T1, Type I collagen; assay: maximum binding at 12.27% mass fraction ssDNA; SYBR Safe depletion assay, deionized water, RT; conditions: tags: rat tail tendon, Corning; chain copies: 2,1
# Type I collagen [10] = target: T1, Type I collagen; assay: binding capacity identical to HAP aptamer; fibers form above about 5 pmol ssDNA/ug collagen; conditions: tags: rat tail tendon, Corning; chain copies: 2,1
# Experimental: as §3, §4
binder,measurement,setting,value
B1,binding result,Type I collagen [1],binds
CAGAGAATCTCCATTTTAGCACTTACCTGTGAC (ssDNA) [random 33 nt ssDNA],binding result,Type I collagen [2],binds
TCCCGCGAAATTAATACGACAGCACCACTTTTGGAGGGAGATTTC (ssDNA) [random 45 nt ssDNA],binding result,Type I collagen [3],binds
B2,binding result,Type I collagen [4],binds
CAGGTGGGCGCGCTGTCGTGGGTGCTCGGGTGCGGTTGGG (ssDNA) [HAP aptamer (Aptamer G)],binding result,Type I collagen [5],binds
CAGGTGGGGGCGCTGTCGTGGGGGCTCGGGGGCGGTGGGG (ssDNA) [Aptamer G+],binding result,Type I collagen [6],binds
CAGGTGCGCGCGCTGTCGTGCGTGCTCGCGTGCGGTTGCG (ssDNA) [Aptamer G-],binding result,Type I collagen [6],binds
B3,binding result,Type I collagen [7],binds
B4,binding result,Type I collagen [8],binds
GGAGCTGTTGGCGTA (ssDNA) [random 15 nt ssDNA],binding result,Type I collagen [9],binds
TAAAACGCGCTTAAGCTGGTGTTACTCGAGCGGTCTTCTA (ssDNA) [random ssDNA 40 nt (Sequence R)],binding result,Type I collagen [10],binds
